T1: KSHV GPCR (Human herpesvirus 8 type P, UniProt Q98146)
T1 construct: expressed in transfected cells; host or cells: COS-1
T1 sequence (Q98146 1-342): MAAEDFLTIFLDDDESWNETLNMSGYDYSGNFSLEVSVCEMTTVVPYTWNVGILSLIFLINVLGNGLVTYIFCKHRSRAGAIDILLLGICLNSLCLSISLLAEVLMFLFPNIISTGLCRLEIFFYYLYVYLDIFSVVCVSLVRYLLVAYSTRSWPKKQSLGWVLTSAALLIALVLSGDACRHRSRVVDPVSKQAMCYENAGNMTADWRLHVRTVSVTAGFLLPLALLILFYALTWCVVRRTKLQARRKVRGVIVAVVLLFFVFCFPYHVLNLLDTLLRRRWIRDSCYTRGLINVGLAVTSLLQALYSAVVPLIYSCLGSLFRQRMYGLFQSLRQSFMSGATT

B1: I-309: chemokine of the C-C family (protein, UniProt P22362 24-96, looked up)
C-C motif chemokine 1: KSMQVPFSRCCFSFAEQEIPLRAILCYRNTSSICSNEGLIFKLKRGKEACALDTVGWVQRHRKMLRHCPSKRK
B2: MIP-1b: chemokine of the C-C family (protein, UniProt P13236 24-92, looked up)
C-C motif chemokine 4: APMGSDPPTACCFSYTARKLPRNFVVDYYETSSLCSQPAVVFQTKRSKQVCADPSESWVQEYVYDLELN
B3: NAP-2: C-X-C chemokine (protein, UniProt P02775 59-128, looked up)
Neutrophil-activating peptide …: AELRCMCIKTTSGIHPKNIQSLEVIGKGTHCNQVEVIATLKDGRKICLDPDAPRIKKIVQKKLAGDESAD
modifications: Neutrophil-activating peptide 2
notes: C-X-C chemokine

Key:
[1] = tested on: human IL-8 receptors (type A or B); experiment: Inositol phosphate accumulation in COS-1 cells transfected with human IL-8 receptor plasmids with or without Ga16/Ga15; assay type: cell-based; details: COS cells expressing IL-8 receptors without cotransfected Ga16 or Ga15, absence or presence of IL-8
[2] = target: human IL-8 receptor types A or B; details: values previously reported (Holmes et al. 1991; Murphy and Tiffany 1991); cited from earlier work
KSHV GPCR = target: T1, KSHV GPCR; experiment: Competition binding of 125I-IL-8 by unlabelled chemokines to COS-1 cells transfected with pcKSHV GPCR; details: for binding to KSHV GPCR (in words): competition analysis with 125I-IL-8, FIGS. 2 and 3; for Ki: competition of human recombinant 125I-IL-8, COS-1 cells transfected with pcKSHV GPCR, 4° C., 2 hrs, read-out: Kd or Ki
Method: Data represent the mean of triplicate determinations in a representative of two experiments;
Competition binding. The coding sequence of KSHV GPCR was cleaved from its original subcloning plasmid (Cesarman et al. 1996) by digestion with NcoI and inserted into the EcoRV site of the eukaryotic expression vector pcDNA3.1(+) (Invitrogen), producing the pcKSHV GPCR used for expression in mammalian cells. COS-1 cells (American Type Culture Collection) were grown in 100 mm petri dishes in Dulbecco's modified Eagle's medium (DMEM; GIBCO-BRL) with 5% Nu-Serum (Collaborative Research) in a humidified incubator in an atmosphere of 5% CO2 at 37° C. […] Approximately 100,000 cells per well (in 12-well plates) were washed with Hank's balanced salt solution (HBSS) containing 25 mM HEPES, pH 7.4 (GIBCO-BRL). […] The binding buffer contained bovine serum albumin (BSA; 1 mg/ml), bacitracin (1 mg/ml), and phenyl methyl sulphonyl fluoride (PMSF; 1 mM). Assays were terminated by aspirating the binding buffer, washing three times with chilled HBSS and solubilizing the cells with 0.4 N NaOH. An aliquot of this solution was counted in a gamma counter and the data expressed as percent of maximum bound. Binding and dose-response curves were analyzed using Prism software (GraphPad, Inc.).

Molecule	accumulation of IPs [1]	Kd [2] [nM]	binding to KSHV GPCR (in words) (KSHV GPCR)	Ki (KSHV GPCR) [nM]
IL-8: member of the family of C-X-C chemokines; used as radioligand and unlabelled competitor	little measurable accumulation	0.8 to 1	–	–
MCP-1: chemokine of the C-C family	–	–	do not	–
MGSA: C-X-C chemokine	–	–	also bind to KSHV GPCR	270
PF-4: C-X-C chemokine	–	–	also bind to KSHV GPCR	150
RANTES: chemokine of the C-C family	–	–	bind to KSHV GPCR	520
B1	–	–	bind to KSHV GPCR	110
B2	–	–	do not	–
B3	–	–	also bind to KSHV GPCR	23
